US20220025021A1 (BETH ISRAEL DEACONESS MEDICAL CENTER, published 2022)
Numbering of substitutions follows the chain as printed.

B1: MS-87 (antibody, V domains shown)
VH: QVQLVQSGPEVRKPGTSVKVSCKAPGNTLKTYDLHWVRSVPGQGLQWMGWISHEGDKKVIVERFKAKVTITRDRSTNTAYLQLSGLTSGDTAVYYCAKGSKHRLRDYALYDDDGALNWAVDVDYLSNLEFWGQGTAVTVSS
VL: DFVLTQSPHSLSVTPGESASISCKSSHSLIHGDRNNYLAWYVQKPGRSPQLLIYLASSRASGVPDRFSGSGSDKDFTLKISRVETEDVGTYYCMQGRESPWTFGQGTKVDIKR
B2: MS-89 (antibody, V domains shown)
VH: B1 VH with N27Y, R72W
VL: B1 VL with H9L
B3: MS-92 (antibody, V domains shown)
VH: B1 VH with Q46E, T71D, T87R
VL: B1 VL with F2I
B4: MS-88 (antibody, V domains shown)
VH: B1 VH with P25S, N27Y, L29F
VL: B1 VL
B5: MS-91 (antibody, V domains shown)
VH: B1 VH with P25S, N27Y, T71D, R72W
VL: B1 VL with H9L, K74T
B6: MS-112 (antibody)
VH: not shown
VL: DFVLTQSPHSLSVTPGEPASISCKSSHSLIHGDRNNYLAWYVQKPGRSPQLLIYLASSRASGVPDRFSGSGSGKDFTLKISRVEAEDVGTYYCMQGRESPWTFGQGTKVDIKRTVAAPSVFIFPPSDEQLKSGTASVVCLLNNFYPREAKVQWKVDNALQSGNSQESVTEQDSKDSTYSLSSTLTLSKADYEKHKVYACEVTHQGLSSPVTKSFNRGEC
B7: MS-116 (antibody)
VH: not shown
VL: B6 VL with F2I
B8: MS-113 (antibody)
VH: not shown
VL: B6 VL with F2I, H9L, A85T
B9: MS-90 (antibody)
VH: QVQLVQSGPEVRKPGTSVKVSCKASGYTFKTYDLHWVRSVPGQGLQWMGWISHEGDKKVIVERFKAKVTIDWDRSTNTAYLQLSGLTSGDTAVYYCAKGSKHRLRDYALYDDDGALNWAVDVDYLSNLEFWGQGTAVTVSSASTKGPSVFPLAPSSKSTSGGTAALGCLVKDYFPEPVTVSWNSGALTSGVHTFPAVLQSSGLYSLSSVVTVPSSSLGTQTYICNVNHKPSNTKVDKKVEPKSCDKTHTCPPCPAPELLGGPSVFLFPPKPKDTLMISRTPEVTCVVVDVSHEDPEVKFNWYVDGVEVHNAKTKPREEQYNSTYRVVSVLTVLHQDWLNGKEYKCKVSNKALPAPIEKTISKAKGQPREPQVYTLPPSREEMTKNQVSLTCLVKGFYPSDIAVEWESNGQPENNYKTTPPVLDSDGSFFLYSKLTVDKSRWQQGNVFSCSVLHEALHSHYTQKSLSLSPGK
VL: B6 VL with H9L, P18S, G73D, A85T
B10: MS-117 (antibody)
VH: not shown
VL: B6 VL with H9L
B11: MS-118 (antibody)
VH: not shown
VL: B6 VL with F2I, H9L
B12: MS-114 (antibody)
VH: not shown
VL: B6 VL with F2I, H9L, G73D
B13: MS-115 (antibody)
VH: not shown
VL: B6 VL with F2I, H9L, P18S

Columns and labels:
Experiment in all cases: cell-based or functional assay
HIV-1 pseudovirus 263-8 = HIV-1 pseudovirus 263-8 (HIV-1)
[1] = target: HIV-1 pseudovirus SC05.8C11.2344 (HIV-1)
[2] = target: HIV-1 pseudovirus X1193_c1 (HIV-1)
[3] = target: HIV-1 pseudovirus Ce1176_A3 (HIV-1)
[4] = target: HIV-1 pseudovirus AC10.0.29 (HIV-1)
[5] = target: HIV-1 pseudovirus 6952.v1.c20 (HIV-1)
[6] = target: HIV-1 envelope glycoprotein of pseudovirus SC422661.8 (HIV-1)
[7] = target: HIV-1 envelope glycoprotein of pseudovirus RHPA4259.7 (HIV-1)
[8] = target: HIV-1 envelope glycoprotein of pseudovirus DU172.17 (HIV-1)
[9] = target: HIV-1 envelope glycoprotein of pseudovirus BB1012-11.TC21 (HIV-1)
[10] = target: HIV-1 envelope glycoprotein of pseudovirus CNE52 (HIV-1)
[11] = target: HIV-1 envelope glycoprotein of pseudovirus 0260.v5.c36 (HIV-1)

Row | Binder | IC50 (neutralization in TZM.bl cells) (HIV-1 pseudovirus 263-8) [µg/mL] | IC80 (neutralization in TZM.bl cells) (HIV-1 pseudovirus 263-8) [µg/mL] | IC50 (neutralization in TZM.bl cells) [1] [µg/mL] | IC80 (neutralization in TZM.bl cells) [1] [µg/mL] | IC50 (neutralization in TZM.bl cells) [2] [µg/mL] | IC80 (neutralization in TZM.bl cells) [2] [µg/mL] | IC50 (neutralization in TZM.bl cells) [3] [µg/mL] | IC80 (neutralization in TZM.bl cells) [3] [µg/mL] | IC50 (neutralization in TZM.bl cells) [6] [µg/mL] | IC80 (neutralization in TZM.bl cells) [6] [µg/mL] | IC50 (neutralization in TZM.bl cells) [7] [µg/mL] | IC80 (neutralization in TZM.bl cells) [7] [µg/mL] | IC50 (neutralization in TZM.bl cells) [8] [µg/mL] | IC80 (neutralization in TZM.bl cells) [8] [µg/mL] | IC50 (neutralization in TZM.bl cells) [9] [µg/mL] | IC80 (neutralization in TZM.bl cells) [9] [µg/mL] | IC50 (neutralization in TZM.bl cells) [10] [µg/mL] | IC80 (neutralization in TZM.bl cells) [10] [µg/mL] | IC50 (neutralization in TZM.bl cells) [11] [µg/mL] | IC80 (neutralization in TZM.bl cells) [11] [µg/mL] | other results
1 | B1 | 0.065 | 0.361 | 1.23 | 5.17 | 0.098 | 0.277 | 0.907 | 25 |  |  |  |  |  |  |  |  |  |  |  |  | IC50 (neutralization in TZM.bl cells) [4]: 0.059 µg/mL; IC80 (neutralization in TZM.bl cells) [4]: 0.328 µg/mL; IC50 (neutralization in TZM.bl cells) [5]: > 25 µg/mL; IC80 (neutralization in TZM.bl cells) [5]: > 25 µg/mL
2 | B2 | > 25 | > 25 | 0.82 | 3.75 | 0.144 | 0.636 | 0.298 | 9.21 |  |  |  |  |  |  |  |  |  |  |  |  | IC50 (neutralization in TZM.bl cells) [4]: 0.067 µg/mL; IC80 (neutralization in TZM.bl cells) [4]: 0.618 µg/mL; IC50 (neutralization in TZM.bl cells) [5]: > 25 µg/mL; IC80 (neutralization in TZM.bl cells) [5]: > 25 µg/mL
3 | B3 | 0.024 | 0.208 | 1.54 | 4.09 | 0.11 | 0.529 | 0.6 | 9.78 |  |  |  |  |  |  |  |  |  |  |  |  | IC50 (neutralization in TZM.bl cells) [4]: 0.051 µg/mL; IC80 (neutralization in TZM.bl cells) [4]: 0.446 µg/mL; IC50 (neutralization in TZM.bl cells) [5]: 7.38 µg/mL; IC80 (neutralization in TZM.bl cells) [5]: > 25 µg/mL
4 | B4 | 0.111 | 0.99 | 1.54 | 7.31 | 0.171 | 0.775 | 2.76 | > 25 |  |  |  |  |  |  |  |  |  |  |  |  | IC50 (neutralization in TZM.bl cells) [4]: 0.089 µg/mL; IC80 (neutralization in TZM.bl cells) [4]: 0.743 µg/mL; IC50 (neutralization in TZM.bl cells) [5]: > 25 µg/mL; IC80 (neutralization in TZM.bl cells) [5]: > 25 µg/mL
5 | B5 | 0.02 | 0.075 | 0.848 | 2.84 | 0.057 | 0.388 | 0.213 | 2.04 |  |  |  |  |  |  |  |  |  |  |  |  | IC50 (neutralization in TZM.bl cells) [4]: 0.07 µg/mL; IC80 (neutralization in TZM.bl cells) [4]: 0.632 µg/mL; IC50 (neutralization in TZM.bl cells) [5]: 2.62 µg/mL; IC80 (neutralization in TZM.bl cells) [5]: > 25 µg/mL
6 | B6 |  |  |  |  |  |  |  |  | 0.275 | 1.44 | 0.195 | 0.661 | 1.77 | 4.91 | 0.032 | 0.129 | 0.133 | 1.16 | 0.022 | 0.059 | 
7 | B7 |  |  |  |  |  |  |  |  | 0.185 | 1.06 | 0.187 | 0.663 | 1.97 | 6.71 | 0.03 | 0.139 | 0.321 | 3.09 | 0.024 | 0.067 | 
8 | B8 |  |  |  |  |  |  |  |  | 0.354 | 2.12 | 0.206 | 0.696 | 2.22 | 8.27 | 0.026 | 0.109 | 0.502 | 5.04 | 0.026 | 0.092 | 
9 | B9 | 0.021 | 0.109 | 1.5 | 3.84 | 0.114 | 0.399 | 0.22 | 4.24 |  |  |  |  |  |  |  |  |  |  |  |  | IC50 (neutralization in TZM.bl cells) [4]: 0.059 µg/mL; IC80 (neutralization in TZM.bl cells) [4]: 0.592 µg/mL; IC50 (neutralization in TZM.bl cells) [5]: 2.68 µg/mL; IC80 (neutralization in TZM.bl cells) [5]: > 25 µg/mL
10 | B10 |  |  |  |  |  |  |  |  | 0.168 | 1.33 | 0.201 | 0.715 | 1.91 | 6.49 | 0.03 | 0.099 | 0.206 | 1.73 | 0.021 | 0.057 | 
11 | B11 |  |  |  |  |  |  |  |  | 0.244 | 2.05 | 0.164 | 0.785 | 2.12 | 8.29 | 0.036 | 0.117 | 0.42 | 3.4 | 0.019 | 0.069 | 
12 | B12 |  |  |  |  |  |  |  |  | 0.236 | 2.21 | 0.237 | 1.24 | 1.66 | 7.74 | 0.033 | 0.136 | 0.444 | 3.61 | 0.03 | 0.105 | 
13 | B13 |  |  |  |  |  |  |  |  | 0.202 | 1.03 | 0.237 | 0.647 | 1.83 | 5.04 | 0.024 | 0.106 | 0.489 | 5.46 | 0.025 | 0.067 | 
